B1: Drosophila Arc homolog dArc1 (Drosophila Arc1, NP_610955.1) (other, UniProt Q7K1U0 1-254, looked up)
chain: MAQLTQMTNEQLRELIEAVRAAAVGAAGSAAAAGGADASRGKGNFSACTHSFGGTRDHDVVEEFIGNIETYKDVEGISDENALKGISLLFYGMASTWWQGVRKEATTWKEAIALIREHFSPTKPAYQIYMEFFQNKQDDHDPIDTFVIQKRALLAQLPSGRHDEETELDLLFGLLNIKYRKHISRHSVHTFKDLLEQGRIIEHNNQEDEEQLATAKNTRGSKRTTRCTYCSFRGHTFDNCRKRQKDRQEEQHEE
B2: myc-Arc-WT (full-length rat WT Arc expressed in HEK293 cells) (other)
chain: MELDHMTTGGLHAYPAPRGGPAAKPNVILQIGKCRAEMLEHVRRTHRHLLTEVSKQVERELKGLHRSVGKLENNLDGYVPTGDSQRWKKSIKACLCRCQETIANLERWVKREMHVWREVFYRLERWADRLESMGGKYPVGSEPARHTVSVGVGGPEPYCQEADGYDYTVSPYAITPPPAAGELPEQESVGAQQYQSWVPGEDGQPSPGLDTQIFEDPREFLSHLEEYLRQVGGSEEYWLSQIQNHMNGPAKKWWEFKQGSVKNWVEFKKEFLQYSEGTLSREAIQRELDLPQKQGEPLDQFLWRKRDLYQTLYVDAEEEEIIQYVVGTLQPKFKRFLRHPLPKTLEQLIQRGMEVQDGLEQAAEPSVTPLPTEDETEALTPALTSESVASDRTQPE
notes: Crosslinked in situ inside transfected HEK293 cells with formaldehyde; also called WT myc-Arc; not shown: myc tag of pRK5-myc-Arc

Assays:
[1] = biological target: the molecule itself; experiment: negative stain EM of purified protein (self-assembly)
[2] = biological target: the molecule itself; experiment: formaldehyde crosslinking in situ in HEK293 cells, western blot
Description: Western blot samples were mixed with 4× Laemlli buffer (40% glycerol, 250 mM Tris, 4% SDS, 50 mM DTT, pH 6.8) and heated at 70° C. for 5 min. SDS-PAGE gel electrophoresis was used to separate protein samples. Separated samples were transferred to a nitrocellulose membrane (GE Healthcare). Following transfer, membranes were briefly stained with 0.1% Ponceau stain, then destained with 1% acetic acid to remove background, for imaging of total protein. […] Membranes were washed 3×10 min in 1×TBS, then incubated in an HRP-conjugated secondary antibody (Jackson ImmunoResearch) in block for 1 h at RT. After 3×10 min in 1×TBS, a chemiluminescent kit (Bio-Rad, Hercules, Calif.) was used to detect the protein bands, and the membranes were imaged on an Azure c300 gel dock (Azure Biosystems, Dublin, Calif.). Blots were analyzed and quantified using the Gel Analysis plugin in ImageJ.
Media was removed and pelleted cells were then crosslinked with 0.4% formaldehyde in PBS for 10 min with rocking at RT. Cell suspensions were immediately quenched with Tris to a final concentration of 50 mM and repelleted. […] Lysates were cleared by centrifugation at 21,000×g for 10 min at 4° C. and cleared supernatants were then run on a 4%-8% gradient gel and analyzed via western blot with antibodies for Arc (mouse monoclonal, Santa Cruz) and GFP (chicken polyclonal, Ayes).

Protein | binding result [1] | binding result [2]
B1 | binds | –
B2 | – | binds

Reference: patent US20210189432A1 (UNIVERSITY OF UTAH RESEARCH FOUNDATION, published 2021)
